Experimental data as given in the nanobody polyreactivity screen of Harvey et al. (2022).

Assay: yeast display, Sf9 membrane polyspecificity reagent, FACS + sequencing; frameworks hold sequencing errors
Method in brief: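 Galactose induction of a Saccharomyces cerevisiae BJ5465 synthetic nanobody display library ran 36–48 hours. The cells were then stained for 1 hour at 4 °C with 10% biotinylated, detergent-solubilized Sf9 membrane reagent, pulled down on streptavidin microbeads and FACS-sorted into low and high (top ~1%) gates on expression and reagent-binding fluorescence. Labels for polyreactivity follow the gate of origin.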

Sequence	polyreactivity (PSR sort gate)
QVQLVESGGGLVQAAGSLRLSFAASGGIFSYYVMGWYRQAPGKEREFVASITQRGRTYYADSVKGRFTISRDNAKNTVYLQMNSLKPEDTAVYYCAAGIYAFRRHREEYDYWGQGTQVTVSS	high polyreactivity
QVQLVESGGGLVQAGGSLRLSCAASGSISYKYALGWYRQAPGKERELVAAISSSGGRTYYADSVKGRFTISRDNAKNTVYLQMISLKPEDTAVYYCNARTGTTWQGYEYDYWGQGTQVTVSS	low polyreactivity
QVQLVESGGGLVQAGGSLRLSCAASGFISYTYMGWYRQAPGKERELVAGITGSGGSTYYADSVKGRFTISRDNAKNTVYLQMNILKPEDTAVYYCAAPRYLSYVRRYDYWGQGTQVTVSS	high polyreactivity
QVQLVESGGGLVQAGGSLRLSCAASGFTFAFYTMGWSRPAPGKESELVAGITRSGTNTYYADSLTGRFTISRDNAKNTVYLLLNSLTPEDTAVYYCAAAIRPGMDYWGQGTQVTVSS	high polyreactivity
QVQLVESGGGLVQAGGSLRLSCAASGFTFVNYAMGWYRQAPGKERELVAAIRRSGSRTYYADSVKGRCTISRDIAKYTVYLQMNSLKPDDTPVYYCAAVWYRLYGYWGQGTQVTVSS	low polyreactivity
QVQLVESGGGLVQAGGSLRLSCAASGSIFLSYGMGRYRQAPGKERELVATITWSGGSTTYADSVKGRFTISRDNAKNTVYLQMNSLKPEDTAVYYCIALYDVWITLLTYTSSDYWGQGTQVTVSS	low polyreactivity
QVQLVESGGGLVQAGGSLRLSCAASGFIFKPYAMGWYRQAPGKERELVAAITVNGGTTYYADSVKGRFTISRDNAKNTVYLQMNSLKPEDTAVYYCNRGRPGGPSWYHYDYWGQGTQGTVSS	high polyreactivity
QVQLLESGGGLVQAGGSLRLSCAASGNTFSYYTMGWYRPAPGKERELVAAISASGGSTYYADSVKGRFTISRDNAKNTVYIQMNSLKQEDTAVYYCAASFYIERHRYNYWGHGTQVTVSS	high polyreactivity
QVQLVESGGGLVQAGGSLRLSCAASGLIFSHNVMGWYRQAPGKERELVAAISKGGGSTYYADSVKGRFTISRDNAKNTVYLQLNSLIPEDTAVYYCAAPYWSKYRQTEYDYWGQGTQVTVSS	high polyreactivity
QVQLVESGGGLVQAGGSLRLSSAASGNIFYTNTMGWYRQAPGKERELVAAITSGGTTYYADSVKGRFTISRDNAKNTVYLQMNSLKPEDTAVYYCAVRSSKWSWIYYYWGQGTQVTVSS	high polyreactivity
QVQLVESGGGLVQAGGSLRLSCAASGFTFYGNALGWYRQAPGKARELVAAISRSGGSTYYADSVKGRFTISRDNAKNTVYLQMNSLKPDDTAVYYCAVYVRKWYAVTDQYSGSDYWGQGTQVTVSS	high polyreactivity
QVQLVESGGGLVQAGGSLRLSCAASGIIFWQYAMGWYRQAPGKERELVAAISRSGGNTYYADSVKGRFTISRDNAKNTVYLQMNSLKPEDTAVYYCNARRYLRGYGYGYWGQGTQVTVSS	high polyreactivity
QVQLVESGGGLVQAGGTLRLICAASGRISLRNGMGWYRQAPRKERELVAAITSGSSTDYADSVKGRFTISRDNAKNTVYLQMNSLKPEDTAVYYCAKDLLQSGPGAGRYDYWGQGTQVTVSS	low polyreactivity
QVQLVESGGGLVQAGGSLRLSCAASGMTFFTYSMGWYRQAPGKERELVAAISGSGGSTYYADSVKGRFTISRDNAKNTVYLQMNSLKPEDTAVYYCAKRSWIVYDYWGQGTQVTVSS	low polyreactivity
QVQLVESGGGLVQAGGRLRLSCAASGFTFLGSAMGWYRQAPGKERELVAAISSSGGSTYYADSVKGRFTISRDNAKNTVYLQMNSLKPEDTAVYYCAAYVAVPPSDYDYWGQGTQVTVSS	high polyreactivity
QVQLVESGGGLVHAGGSLRLSCAASGILFGYYAIGWYRQAPGKERELVAAITSGSSTDYADSVKGRFTISRDNAKNTFYLQMNSLKPEDTAVYYCNAVTSASTYTFPFDYWGQGTQVTVSS	low polyreactivity
QVQLVESGGGLVQAGGSLRLSCAASGRILPLYAMGWSRQAPGKERELVATMILDGDSTYYADSVKGRFTISRDNAKNTVYLQMNSQKPEDTAVYYCNDDYTPWGRGYPYDYWGQGSQVTVSS	low polyreactivity
